# Assay results reported in IntAct's records for PubMed 14669021.
# B1: Protein ORD (Drosophila melanogaster (Fruit fly)), Q24434 (parent)
# chain: MYGETTLNKNHVIKFIKLKINNCLGCDEVEINFSKADNVHIIIYSLVTDMAKDLPAVTPVAQAILLLCSLTYPDSDSLETIPQLKIGKGSVSMSFKVYPVNKEEETEPESESDLDEGPSTSKQALERMVQRAERKAKEASTRNVHSKGIYVNVERRFDMYFALDTVSYYINGGKRQSCPLPEFHAKFFVRPQHSINLLRQLHEKCSGNWLKVIQSDGDGDAFKKFKDPDSPFETFVKLFESNPIKPNDMMGKLAKTCLHVNEAVRLTEREFILEVFNQVRHIFEYITAQEYTVWFLVPCLGDKDQLRSKTLEDFDLTKVRTSIRRAGDTSNIWWDHTDHNIKDILLVAFQLDLATHVNQSVLVISHLETLAEFSTMQYVTAFFMNDFYAKKNTEPKWICHRYLERIIDVALFLGVIVIIEYPSAFTLLQEGRHLIKCFQKENADSSRTSQWEIFEDVVKENESDLEFLKEAVGKVQQNV
# partner: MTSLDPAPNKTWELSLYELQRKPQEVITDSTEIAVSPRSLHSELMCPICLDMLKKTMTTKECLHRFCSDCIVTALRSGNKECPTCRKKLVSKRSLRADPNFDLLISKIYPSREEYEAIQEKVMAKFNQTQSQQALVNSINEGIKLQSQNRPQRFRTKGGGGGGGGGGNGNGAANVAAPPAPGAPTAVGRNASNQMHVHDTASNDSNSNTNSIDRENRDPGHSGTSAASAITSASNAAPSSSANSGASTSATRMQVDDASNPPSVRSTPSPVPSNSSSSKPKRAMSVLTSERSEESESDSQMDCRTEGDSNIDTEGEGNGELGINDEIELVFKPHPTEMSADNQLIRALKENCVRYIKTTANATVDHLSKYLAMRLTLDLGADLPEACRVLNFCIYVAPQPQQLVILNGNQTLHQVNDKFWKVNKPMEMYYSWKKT
# Variants of: B1
# Details: with ring1_drome Sce
row,Variant,effect of a mutation on the interaction
1,MYGETTLNKNHVIKFIKLKINNCLGCDEVEINFSKADNVHIIIYSLVTDMAKDLPAVTPVAQAILLLCSLTYPDSDSLETIPQLKIGKGSVSMSFKVYPVNKEEETEPESESDLDEGPSTSKQALERMVQRAERKAKEASTRNVHSKGIYVNVERRFDMYFALDTVSYYINGGKRQSCPLPEFHAKFFVRPQHSINLLRQLHEKCSGNWLKVIQSDGDGDAFKKFKDPDSPFETFVKLFESNPIKPNDMMGKLAKTCLHVNEAVRLTEREFILEVFNQVRHIFEYITAQEYTVWFLVPCLGDKDQLRSKTLEDFDLTKVRTSIRRAGDTSNIWWDHTDHNIKDILLVAFQLDLATHVNQSVLVISHLETLAEFSTMQYVTAFFMNDFYAKKNTEPKWICHRYLERIIDVALFLGVIDIIEYPSAFTLLQEGRHLIKCFQKENADSSRTSQWEIFEDVVKENESDLEFLKEAVGKVQQNV [V417D],decreasing interaction
